Test results: patent US20160272683A1 (Novo Nordisk, published 2016)
Numbered stars: 1 amine (or outer) side, 2 acyl side, 3 side chain; on linkers, the order of the positions; unused ones are H or OH. * marks the point of attachment. C20 diacid = O=C(O)CCCCCCCCCCCCCCCCCCC(=O)*; C18 diacid = O=C(O)CCCCCCCCCCCCCCCCC(=O)*; γGlu = O=C(O)[C@H](CCC(=O)[*:2])N[*:1]; C14 diacid = O=C(O)CCCCCCCCCCCCC(=O)*

T1: human amylin 3(a) receptor (human calcitonin receptor co-expressed with RAMP-3) (human, UniProt P30988 25-474; O60896 24-148, limits assumed)
T1 sequence (looked up) 1: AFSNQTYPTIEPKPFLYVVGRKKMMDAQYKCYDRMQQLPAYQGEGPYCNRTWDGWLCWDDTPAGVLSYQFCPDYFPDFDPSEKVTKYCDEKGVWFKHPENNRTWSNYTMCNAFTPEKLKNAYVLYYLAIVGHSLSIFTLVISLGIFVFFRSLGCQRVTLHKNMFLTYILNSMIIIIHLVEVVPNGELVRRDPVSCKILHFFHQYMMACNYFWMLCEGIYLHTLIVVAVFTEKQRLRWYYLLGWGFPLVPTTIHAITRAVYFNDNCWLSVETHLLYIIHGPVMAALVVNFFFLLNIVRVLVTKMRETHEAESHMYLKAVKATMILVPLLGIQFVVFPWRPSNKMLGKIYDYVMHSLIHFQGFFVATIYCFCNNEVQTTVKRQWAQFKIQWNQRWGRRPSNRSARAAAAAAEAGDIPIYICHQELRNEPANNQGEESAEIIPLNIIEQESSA
T1 sequence (looked up) 2: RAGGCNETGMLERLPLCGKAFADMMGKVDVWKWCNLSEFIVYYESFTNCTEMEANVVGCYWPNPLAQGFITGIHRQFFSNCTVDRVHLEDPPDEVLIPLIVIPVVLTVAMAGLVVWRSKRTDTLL

T2: human calcitonin receptor (human, UniProt P30988 25-474)
T2 sequence (looked up): T1 sequence (looked up) 1

B1: [N-terminal(C18 diacid-gGlu), des1, 30S]mimylin (peptide)
peptide: {C18 diacid-γGlu}-ASELSTAALGRLSAELHELATLPRTETGSESP-NH2
SMILES: CC(C)C[C@H](NC(=O)[C@H](C)NC(=O)[C@H](C)NC(=O)[C@@H](NC(=O)[C@H](CO)NC(=O)[C@H](CC(C)C)NC(=O)[C@H](CCC(=O)O)NC(=O)[C@H](CO)NC(=O)[C@H](C)NC(=O)CC[C@H](NC(=O)CCCCCCCCCCCCCCCCC(=O)O)C(=O)O)[C@@H](C)O)C(=O)NCC(=O)N[C@@H](CCCNC(=N)N)C(=O)N[C@@H](CC(C)C)C(=O)N[C@@H](CO)C(=O)N[C@@H](C)C(=O)N[C@@H](CCC(=O)O)C(=O)N[C@@H](CC(C)C)C(=O)N[C@@H](Cc1c[nH]cn1)C(=O)N[C@@H](CCC(=O)O)C(=O)N[C@@H](CC(C)C)C(=O)N[C@@H](C)C(=O)N[C@H](C(=O)N[C@@H](CC(C)C)C(=O)N1CCC[C@H]1C(=O)N[C@@H](CCCNC(=N)N)C(=O)N[C@H](C(=O)N[C@@H](CCC(=O)O)C(=O)N[C@H](C(=O)NCC(=O)N[C@@H](CO)C(=O)N[C@@H](CCC(=O)O)C(=O)N[C@@H](CO)C(=O)N1CCC[C@H]1C(N)=O)[C@@H](C)O)[C@@H](C)O)[C@@H](C)O
B2: [N-terminal(C18 diacid)]mimylin (peptide)
peptide: {C18 diacid}-EASELSTAALGRLSAELHELATLPRTETGPESP-NH2
SMILES: CC(C)C[C@H](NC(=O)[C@H](C)NC(=O)[C@H](C)NC(=O)[C@@H](NC(=O)[C@H](CO)NC(=O)[C@H](CC(C)C)NC(=O)[C@H](CCC(=O)O)NC(=O)[C@H](CO)NC(=O)[C@H](C)NC(=O)[C@H](CCC(=O)O)NC(=O)CCCCCCCCCCCCCCCCC(=O)O)[C@@H](C)O)C(=O)NCC(=O)N[C@@H](CCCNC(=N)N)C(=O)N[C@@H](CC(C)C)C(=O)N[C@@H](CO)C(=O)N[C@@H](C)C(=O)N[C@@H](CCC(=O)O)C(=O)N[C@@H](CC(C)C)C(=O)N[C@@H](Cc1c[nH]cn1)C(=O)N[C@@H](CCC(=O)O)C(=O)N[C@@H](CC(C)C)C(=O)N[C@@H](C)C(=O)N[C@H](C(=O)N[C@@H](CC(C)C)C(=O)N1CCC[C@H]1C(=O)N[C@@H](CCCNC(=N)N)C(=O)N[C@H](C(=O)N[C@@H](CCC(=O)O)C(=O)N[C@H](C(=O)NCC(=O)N1CCC[C@H]1C(=O)N[C@@H](CCC(=O)O)C(=O)N[C@@H](CO)C(=O)N1CCC[C@H]1C(N)=O)[C@@H](C)O)[C@@H](C)O)[C@@H](C)O
B3: [N-terminal(C18 diacid), 30S, 31G]mimylin (peptide)
peptide: {C18 diacid}-EASELSTAALGRLSAELHELATLPRTETGSGSP-NH2
B4: [N-terminal(C18 diacid), 23Y]mimylin (peptide)
peptide: {C18 diacid}-EASELSTAALGRLSAELHELATYPRTETGPESP-NH2
SMILES: CC(C)C[C@H](NC(=O)[C@H](C)NC(=O)[C@H](C)NC(=O)[C@@H](NC(=O)[C@H](CO)NC(=O)[C@H](CC(C)C)NC(=O)[C@H](CCC(=O)O)NC(=O)[C@H](CO)NC(=O)[C@H](C)NC(=O)[C@H](CCC(=O)O)NC(=O)CCCCCCCCCCCCCCCCC(=O)O)[C@@H](C)O)C(=O)NCC(=O)N[C@@H](CCCNC(=N)N)C(=O)N[C@@H](CC(C)C)C(=O)N[C@@H](CO)C(=O)N[C@@H](C)C(=O)N[C@@H](CCC(=O)O)C(=O)N[C@@H](CC(C)C)C(=O)N[C@@H](Cc1c[nH]cn1)C(=O)N[C@@H](CCC(=O)O)C(=O)N[C@@H](CC(C)C)C(=O)N[C@@H](C)C(=O)N[C@H](C(=O)N[C@@H](Cc1ccc(O)cc1)C(=O)N1CCC[C@H]1C(=O)N[C@@H](CCCNC(=N)N)C(=O)N[C@H](C(=O)N[C@@H](CCC(=O)O)C(=O)N[C@H](C(=O)NCC(=O)N1CCC[C@H]1C(=O)N[C@@H](CCC(=O)O)C(=O)N[C@@H](CO)C(=O)N1CCC[C@H]1C(N)=O)[C@@H](C)O)[C@@H](C)O)[C@@H](C)O
B5: [N-terminal(C18 diacid), 32H]mimylin (peptide)
peptide: {C18 diacid}-EASELSTAALGRLSAELHELATLPRTETGPEHP-NH2
SMILES: CC(C)C[C@H](NC(=O)[C@H](C)NC(=O)[C@H](C)NC(=O)[C@@H](NC(=O)[C@H](CO)NC(=O)[C@H](CC(C)C)NC(=O)[C@H](CCC(=O)O)NC(=O)[C@H](CO)NC(=O)[C@H](C)NC(=O)[C@H](CCC(=O)O)NC(=O)CCCCCCCCCCCCCCCCC(=O)O)[C@@H](C)O)C(=O)NCC(=O)N[C@@H](CCCNC(=N)N)C(=O)N[C@@H](CC(C)C)C(=O)N[C@@H](CO)C(=O)N[C@@H](C)C(=O)N[C@@H](CCC(=O)O)C(=O)N[C@@H](CC(C)C)C(=O)N[C@@H](Cc1c[nH]cn1)C(=O)N[C@@H](CCC(=O)O)C(=O)N[C@@H](CC(C)C)C(=O)N[C@@H](C)C(=O)N[C@H](C(=O)N[C@@H](CC(C)C)C(=O)N1CCC[C@H]1C(=O)N[C@@H](CCCNC(=N)N)C(=O)N[C@H](C(=O)N[C@@H](CCC(=O)O)C(=O)N[C@H](C(=O)NCC(=O)N1CCC[C@H]1C(=O)N[C@@H](CCC(=O)O)C(=O)N[C@@H](Cc1c[nH]cn1)C(=O)N1CCC[C@H]1C(N)=O)[C@@H](C)O)[C@@H](C)O)[C@@H](C)O
B6: [N-terminal(C18 diacid), 5V, 9V]mimylin (peptide)
peptide: {C18 diacid}-EASEVSTAVLGRLSAELHELATLPRTETGPESP-NH2
SMILES: CC(C)C[C@H](NC(=O)[C@H](CCC(=O)O)NC(=O)[C@H](Cc1c[nH]cn1)NC(=O)[C@H](CC(C)C)NC(=O)[C@H](CCC(=O)O)NC(=O)[C@H](C)NC(=O)[C@H](CO)NC(=O)[C@H](CC(C)C)NC(=O)[C@H](CCCNC(=N)N)NC(=O)CNC(=O)[C@H](CC(C)C)NC(=O)[C@@H](NC(=O)[C@H](C)NC(=O)[C@@H](NC(=O)[C@H](CO)NC(=O)[C@@H](NC(=O)[C@H](CCC(=O)O)NC(=O)[C@H](CO)NC(=O)[C@H](C)NC(=O)[C@H](CCC(=O)O)NC(=O)CCCCCCCCCCCCCCCCC(=O)O)C(C)C)[C@@H](C)O)C(C)C)C(=O)N[C@@H](C)C(=O)N[C@H](C(=O)N[C@@H](CC(C)C)C(=O)N1CCC[C@H]1C(=O)N[C@@H](CCCNC(=N)N)C(=O)N[C@H](C(=O)N[C@@H](CCC(=O)O)C(=O)N[C@H](C(=O)NCC(=O)N1CCC[C@H]1C(=O)N[C@@H](CCC(=O)O)C(=O)N[C@@H](CO)C(=O)N1CCC[C@H]1C(N)=O)[C@@H](C)O)[C@@H](C)O)[C@@H](C)O
B7: [N-terminal(C14 diacid-gGlu), des1]mimylin (peptide)
peptide: {C14 diacid-γGlu}-ASELSTAALGRLSAELHELATLPRTETGPESP-NH2
B8: [N-terminal(C18 diacid), 5I, 9I]mimylin (peptide)
peptide: {C18 diacid}-EASEISTAILGRLSAELHELATLPRTETGPESP-NH2
SMILES: CC[C@H](C)[C@H](NC(=O)[C@H](C)NC(=O)[C@@H](NC(=O)[C@H](CO)NC(=O)[C@@H](NC(=O)[C@H](CCC(=O)O)NC(=O)[C@H](CO)NC(=O)[C@H](C)NC(=O)[C@H](CCC(=O)O)NC(=O)CCCCCCCCCCCCCCCCC(=O)O)[C@@H](C)CC)[C@@H](C)O)C(=O)N[C@@H](CC(C)C)C(=O)NCC(=O)N[C@@H](CCCNC(=N)N)C(=O)N[C@@H](CC(C)C)C(=O)N[C@@H](CO)C(=O)N[C@@H](C)C(=O)N[C@@H](CCC(=O)O)C(=O)N[C@@H](CC(C)C)C(=O)N[C@@H](Cc1c[nH]cn1)C(=O)N[C@@H](CCC(=O)O)C(=O)N[C@@H](CC(C)C)C(=O)N[C@@H](C)C(=O)N[C@H](C(=O)N[C@@H](CC(C)C)C(=O)N1CCC[C@H]1C(=O)N[C@@H](CCCNC(=N)N)C(=O)N[C@H](C(=O)N[C@@H](CCC(=O)O)C(=O)N[C@H](C(=O)NCC(=O)N1CCC[C@H]1C(=O)N[C@@H](CCC(=O)O)C(=O)N[C@@H](CO)C(=O)N1CCC[C@H]1C(N)=O)[C@@H](C)O)[C@@H](C)O)[C@@H](C)O
B9: [N-terminal(C20 diacid), 30S, 31G]mimylin (peptide)
peptide: {C20 diacid}-EASELSTAALGRLSAELHELATLPRTETGSGSP-NH2

molecular target: T1, human amylin 3(a) receptor (human …); test: cell-based or functional assay

Binder | hAmylin-R funct. EC50 (pM)
B1 | 9
B2 | 8
B3 | 9
B4 | 11
B5 | 20
B6 | 20
B7 | 8
B8 | 10
B9 | 11

molecular target: T2, human calcitonin receptor; test: cell-based or functional assay

Binder | hCTR funct. EC50 (pM)
B1 | 4
B2 | 5
B3 | 6
B4 | 7
B5 | 17
B6 | 14
B7 | 3
B8 | 7
B9 | 9
